Assay results as given in patent US20190248881A1.
Read-outs that look alike come from different tables or passages of the source.

Assays:
TGF-β3 [1] = target: T1, TGF-β3 (UniProt P10600); assay: SPR; cycle 14, TGF-B3
T1 sequence (looked up): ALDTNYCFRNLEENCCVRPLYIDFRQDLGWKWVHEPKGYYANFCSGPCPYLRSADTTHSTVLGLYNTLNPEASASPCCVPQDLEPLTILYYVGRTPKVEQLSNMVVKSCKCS

TGF-β2 [2] = target: T2, TGF-β2 (UniProt P61812)
T2 sequence (looked up): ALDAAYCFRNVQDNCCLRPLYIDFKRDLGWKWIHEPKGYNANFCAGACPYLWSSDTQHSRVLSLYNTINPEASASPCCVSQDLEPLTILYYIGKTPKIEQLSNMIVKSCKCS

TGF-β2 [3] = target: T2, TGF-β2; assay: SPR; average of cycles 10, 12, 14, TGF-B2
TGF-β1 [4] = target: TGF-β1 (UniProt P01137); assay: SPR; average of cycles 10, 12, 14, TGF-B1
Chain of UniProt P01137 (P01137 279-390 limits assumed): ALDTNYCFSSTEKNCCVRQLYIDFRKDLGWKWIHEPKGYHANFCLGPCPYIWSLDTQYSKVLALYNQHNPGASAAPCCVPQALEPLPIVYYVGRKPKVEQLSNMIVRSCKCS

TGF-β2 [5] = target: T2, TGF-β2; remark: listed apart in the source
TGF-β1 [6] = target: TGF-β1 (UniProt P01137); assay: SPR; cycle 14, TGF-B1
TGF-β3 [7] = target: T1, TGF-β3; assay: cell-based or functional assay; parameters: unit not given beside the values
TGF-β2 [8] = target: T2, TGF-β2; assay: cell-based or functional assay; parameters: unit not given beside the values
TGF-β1 [9] = target: TGF-β1 (UniProt P01137); assay: cell-based or functional assay; parameters: unit not given beside the values
TGF-β3 [10] = target: T1, TGF-β3
TGF-β2 [11] = target: T2, TGF-β2; assay: SPR; cycle 14, TGF-B2
TGF-β2 [12] = target: T2, TGF-β2; assay: SPR; cycle 10, TGF-B2
TGF-β1 [13] = target: TGF-β1 (UniProt P01137); assay: SPR; cycle 12, TGF-B1
TGF-β1 [14] = target: TGF-β1 (UniProt P01137)
TGF-β3 [15] = target: T1, TGF-β3; remark: listed apart in the source
TGF-β2 [16] = target: T2, TGF-β2; assay: SPR; cycle 12, TGF-B2
TGF-β3 [17] = target: T1, TGF-β3; assay: SPR; cycle 10, TGF-B3
TGF-β1 [18] = target: TGF-β1 (UniProt P01137); remark: listed apart in the source
TGF-β3 [19] = target: T1, TGF-β3; assay: SPR; average of cycles 10, 12, 14, TGF-B3
TGF-β1 [20] = target: TGF-β1 (UniProt P01137); assay: SPR; cycle 10, TGF-B1
TGF-β3 [21] = target: T1, TGF-β3; assay: cell-based or functional assay
TGF-β2 [22] = target: T2, TGF-β2; assay: cell-based or functional assay
TGF-β1 [23] = target: TGF-β1 (UniProt P01137); assay: cell-based or functional assay
TGF-β3 [24] = target: T1, TGF-β3; assay: SPR; cycle 12, TGF-B3

Kd (TGF-β3 [1]): 7.93 pM
koff (TGF-β3 [1]): 2.75e-06 s⁻¹
kon (TGF-β3 [1]): 346000 M⁻¹ s⁻¹
IC50 (read off the curve) (TGF-β2 [2]): 0.4 nM
Kd (TGF-β2 [3]): 0.0792 nM
koff (TGF-β2 [3]): 5.23e-05 s⁻¹
kon (TGF-β2 [3]): 662000 M⁻¹ s⁻¹
Kd (TGF-β1 [4]): 0.0873 nM
koff (TGF-β1 [4]): 4.06e-05 s⁻¹
kon (TGF-β1 [4]): 470000 M⁻¹ s⁻¹
IC50 (read off the curve) (TGF-β2 [5]): 0.2 nM
Kd (TGF-β1 [6]): 0.0733 nM
koff (TGF-β1 [6]): 3.78e-05 s⁻¹
kon (TGF-β1 [6]): 515000 M⁻¹ s⁻¹
IC50 for neutralization of TGF-β (TGF-β3 [7]): 0.0547
IC50 for neutralization of TGF-β (TGF-β2 [8]): 0.492
IC50 for neutralization of TGF-β (TGF-β1 [9]): 0.0722
IC50 (read off the curve) (TGF-β3 [10]): 0.03 nM
Kd (TGF-β2 [11]): 0.0723 nM
koff (TGF-β2 [11]): 4.98e-05 s⁻¹
kon (TGF-β2 [11]): 690000 M⁻¹ s⁻¹
Kd (TGF-β2 [12]): 0.0832 nM
koff (TGF-β2 [12]): 5.17e-05 s⁻¹
kon (TGF-β2 [12]): 621000 M⁻¹ s⁻¹
Kd (TGF-β1 [13]): 0.0873 nM
koff (TGF-β1 [13]): 4.18e-05 s⁻¹
kon (TGF-β1 [13]): 479000 M⁻¹ s⁻¹
IC50 (read off the curve) (TGF-β1 [14]): 0.1 nM
IC50 (read off the curve) (TGF-β3 [15]): 0.02 nM
Kd (TGF-β2 [16]): 0.082 nM
koff (TGF-β2 [16]): 5.54e-05 s⁻¹
kon (TGF-β2 [16]): 675000 M⁻¹ s⁻¹
Kd (TGF-β3 [17]): 0.0108 nM
koff (TGF-β3 [17]): 2.9e-06 s⁻¹
kon (TGF-β3 [17]): 268000 M⁻¹ s⁻¹
IC50 (read off the curve) (TGF-β1 [18]): 0.2 nM
Kd (TGF-β3 [19]): 0.0116 nM
koff (TGF-β3 [19]): 3.57e-06 s⁻¹
kon (TGF-β3 [19]): 310000 M⁻¹ s⁻¹
Kd (TGF-β1 [20]): 0.102 nM
koff (TGF-β1 [20]): 4.23e-05 s⁻¹
kon (TGF-β1 [20]): 416000 M⁻¹ s⁻¹
EC50, TGF-β isoform neutralization (TGF-β3 [21]): 0.225 nM
EC50 for neutralization of TGF-β (TGF-β3 [21]): 19 picomol/L
EC50, TGF-β isoform neutralization (TGF-β2 [22]): 0.591 nM
EC50 for neutralization of TGF-β (TGF-β2 [22]): 382 picomol/L
EC50, TGF-β isoform neutralization (TGF-β1 [23]): 0.0478 nM
EC50 for neutralization of TGF-β (TGF-β1 [23]): 164 picomol/L
Kd (TGF-β3 [24]): 0.016 nM
koff (TGF-β3 [24]): 5.06e-06 s⁻¹
kon (TGF-β3 [24]): 316000 M⁻¹ s⁻¹
B1: 1D11 (PCT-001), mouse monoclonal anti-TGF-β antibody (antibody, from another filing, V domains shown)
VH: QVQLQQSGPELVRPGASVKLSCKASGYIFITYWMNWVKQRPGQGLEWIGQIFPASGSTNYNEMFEGKATLTVDTSSSTAYMQLSSLTSEDSAVYYCARGDGNYALDAMDYWGQGTSVTVSS
VL: DIVLTQSPASLAVSLGQRATISCRASESVDSYGNSFMHWYQQKSGQPPKLLIYLASNLESGVPARFSGSGSRTDFTLTIDPVEADDAATYYCQQNNEDPLTFGAGTKLEIK
